According to US7998940B2, “Aptamers to von Willebrand factor and their use as thrombotic disease therapeutics” (Archemix Corp., priority 2004, dated 2011):

How the values were obtained:
[1] = test system: rabbit vWF A1 domain (SEQ ID NO 6); test: 3-point dot blot screen, rabbit vWF A1 domain; format: binding; details: 3-point dot blot screen, 20 nM rabbit vWF A1 domain; ratio of fraction of aptamer bound with target protein to fraction bound without protein
Method in brief: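 Rabbit vWF A1 domain binding was screened by dot blot using three conditions: no target protein, human vWF, and rabbit vWF A1 domain at 100 nM (20 nM in the screen run twice). Radiolabeled aptamer bound to nitrocellulose was quantified, and results are expressed as the ratio of bound fraction with protein to bound fraction without protein.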

[2] = test system: full length human vWF; test: 3-point dot blot screen, full length human vWF; format: binding; details: 20 nM full length human vWF, ratio of fraction of aptamer bound with target protein to fraction bound without protein
Description: When a significant positive ratio of binding of DNA in the presence of human or rabbit vWF A1 domain versus in the absence of protein was seen, the pools were cloned using the TOPO TA cloning kit (Invitrogen Cat. #45-0641, Carlsbad, Calif.) according to the manufacturer's instructions. Round 7 and 11 pool templates were cloned and sequenced (218 total sequences), producing 146 unique clones within 12 sequence families of which sequences from six families show vWF target binding activity. All unique clones were assayed twice in a 3-point dot blot screen (no protein target control, 20 nM full length human vWF (Calbiochem Cat. #681300, La Jolla, Calif.), or 20 nM rabbit vWF A1 domain. The data is presented in the third and fourth columns of Table 17 below as the ratio of the fraction of the aptamer bound to the nitrocellulose in the presence of the target protein to the fraction of aptamer bound in the absence of the target protein.

rabbit vWF A1 domain (SEQ ID NO 6), sequence (as listed by the source): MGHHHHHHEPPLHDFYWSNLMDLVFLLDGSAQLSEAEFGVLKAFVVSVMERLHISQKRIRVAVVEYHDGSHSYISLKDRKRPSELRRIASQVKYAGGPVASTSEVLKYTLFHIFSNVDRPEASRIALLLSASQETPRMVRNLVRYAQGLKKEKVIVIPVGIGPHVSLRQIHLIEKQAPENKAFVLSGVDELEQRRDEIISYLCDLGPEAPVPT

Molecule	Screen Rabbit/No Protein [1]	Screen- Human/No Protein [2]
AMX236.H1: DNA SELEX 2 aptamer clone (nucleic acid, DNA, backbone not given here, DNA SELEX 2 aptamer clone) CTACCTACGATCTGACTAGCCTCAGATTGACTCCGGCCGACTTGTTTTAATCTTCTGAGTGCTTACTCTCATGTAGTTCC	1.14	1.10
AMX236.G1: DNA SELEX 2 aptamer clone (nucleic acid, DNA, backbone not given here, DNA SELEX 2 aptamer clone) CTACCTACGATCTGACTAGCCTCAGATTGACTCCGGCTGACTTGTTTTAATCTTCTGAGTGCTTACTCTCATGTAGTTCC	1.51	1.47
AMX236.F7: DNA SELEX 2 aptamer clone (nucleic acid, DNA, backbone not given here, DNA SELEX 2 aptamer clone) CTACCTACGATCTGACTAGCCCCCACTTATCGTGTACCTTATGATATGTCGAATACTCTTGCTTACTCTCATGTAGTTCC	1.20	1.18
AMX236.B3: DNA SELEX 2 aptamer clone (nucleic acid, DNA, backbone not given here, DNA SELEX 2 aptamer clone) CTACCTACGATCTGACTAGCCTTACCTATTCCCTTCTGCGGAATACGTCGAGTACTATGCTTACTCTCATGTAGTTCC	1.41	1.54
AMX237.B1: DNA SELEX 2 aptamer clone (nucleic acid, DNA, backbone not given here, DNA SELEX 2 aptamer clone) CTACCTACGATCTGACTAGCTTGGTAGCGACACAGTGGAGCTGCGGTTTGGTCGACGTCAGCTTACTCTCATGTAGTTCC	2.10	2.00
AMX237.H5: DNA SELEX 2 aptamer clone (nucleic acid, DNA, backbone not given here, DNA SELEX 2 aptamer clone) DNA: CTACCTACGATCTGACTAGCTCCAGTGTTTCATTTAATAACCGTGCGGTGCCTCCGTGAGCTTACTCTCATGTAGTTCC	1.61	1.63
AMX237.E2: DNA SELEX 2 aptamer clone (nucleic acid, DNA, backbone not given here, DNA SELEX 2 aptamer clone) DNA: CTACCTACGATCTGACTAGCTCCAGTGTTTCATCTAATAACCGTGCGGTGCCTCCGTGAGCTTACTCTCATGTAGTTCC	1.61	1.61
AMX237.B4: DNA SELEX 2 aptamer clone (nucleic acid, DNA, backbone not given here, DNA SELEX 2 aptamer clone) DNA: CTACCTACGATCTGACTAGCTCCAGTGTTTCATCCAATAACCGTGCGGTGCTTCCGTGAGCTTACTCTCATGTAGTTCC	1.38	1.42
AMX238.F7: DNA SELEX 2 aptamer clone (nucleic acid, DNA, backbone not given here, DNA SELEX 2 aptamer clone) DNA: CTACCTACGATCTGACTAGCAAGGGGATTGGCTCCGGGTCTGGCGTGCTTGGCATCTTTGGCTTACTCTCATGTAGTTCC	1.88	1.20
AMX238.A12: DNA SELEX 2 aptamer clone (nucleic acid, DNA, backbone not given here, DNA SELEX 2 aptamer clone) DNA: CTACCTACGATCTGACTAGCCAGTTCTGGGAAAAATTATTTTTTTATTTCGATCGTATATGCTTACTCTCATGTAGTTCC	0.99	1.23
AMX236.C9: DNA SELEX 2 aptamer clone (nucleic acid, DNA, backbone not given here, DNA SELEX 2 aptamer clone) CTACCTACGATCTGACTAGCCAGTTCTGGGAAAAATTATTTTTTTATTTCGATCGTATTTGCTTACTCTCATGTAGTTCC	1.00	1.24
AMX238.G4: DNA SELEX 2 aptamer clone (nucleic acid, DNA, backbone not given here, DNA SELEX 2 aptamer clone) DNA: CTACCTACGATCTGACTAGCTTGTCGCACTTTTGGTTGGTCTGGTTGGTTCTAAGTGCGCTTACTCTCATGTAGTTCC	1.39	1.09
AMX238.H9: DNA SELEX 2 aptamer clone (nucleic acid, DNA, backbone not given here, DNA SELEX 2 aptamer clone) DNA: CTACCTACGATCTGACTAGCTTGTCGCACTTTTGGTTGGTCTGGTTGGTTTTAAGTGCGCTTACTCTCATGTAGTTCC	1.32	1.11
AMX238.A3: DNA SELEX 2 aptamer clone (nucleic acid, DNA, backbone not given here, DNA SELEX 2 aptamer clone) DNA: CTACCTACGATCTGACTAGCTCAAAGTATTACTTATTGGCAATAAGTCGTTTACTCTATAGCTTACTCTCATGTAGTTCC	1.03	1.36
AMX238.D9: DNA SELEX 2 aptamer clone (nucleic acid, DNA, backbone not given here, DNA SELEX 2 aptamer clone) DNA: CTACCTACGATCTGACTAGCCAGTTCTGGGAAAAATCATTTTTTATTTCGATCGTATTTGCTTACTCTCATGTAGTTCC	0.97	1.22
AMX238.A6: DNA SELEX 2 aptamer clone (nucleic acid, DNA, backbone not given here, DNA SELEX 2 aptamer clone) DNA: CTACCTACGATCTGACTAGCGGAATGAGAATGCAGATGGATTGCTCAGGTCTGCTGGCTGCTTACTCTCATGTAGTTCC	3.47	0.92
AMX238.F6: DNA SELEX 2 aptamer clone (nucleic acid, DNA, backbone not given here, DNA SELEX 2 aptamer clone) DNA: CTACCTACGATCTGACTAGCGGAATGAGTATGCTGGTGGATTGCTCAGGTCTGCTGGCTGCTTACTCTCATGTAGTTCC	5.36	1.18
AMX236.C6: DNA SELEX 2 aptamer clone (nucleic acid, DNA, backbone not given here, DNA SELEX 2 aptamer clone) CTACCTACGATCTGACTAGCGGAATGAGAGTGCTGGTGGATTGCTCAGGTCTGCTGGCTGCTTACTCTCATGTAGTTCC	5.77	1.06
AMX238.A11: DNA SELEX 2 aptamer clone (nucleic acid, DNA, backbone not given here, DNA SELEX 2 aptamer clone) DNA: CTACCTACGATCTGACTAGCGGAATGAGAGTGTTGGTGGATTGCTCAGGTCTGCTGGCTGCTTACTCTCATGTAGTTCC	4.54	0.85
AMX236.E2: DNA SELEX 2 aptamer clone (nucleic acid, DNA, backbone not given here, DNA SELEX 2 aptamer clone) CTACCTACGATCTGACTAGCGGAATGAGTATGCTGATGGATTGCTCAGGTCTGCTGGCTGCTTACTCTCATGTAGTTCC	3.59	0.93
AMX237.C4: DNA SELEX 2 aptamer clone (nucleic acid, DNA, backbone not given here, DNA SELEX 2 aptamer clone) DNA: CTACCTACGATCTGACTAGCTTTCAGTCTTCCACATTTATAGGGTTTGGCATTGGGTCTGGCTTACTCTCATGTAGTTCC	1.31	0.97
AMX237.F5: DNA SELEX 2 aptamer clone (nucleic acid, DNA, backbone not given here, DNA SELEX 2 aptamer clone) DNA: CTACCTACGATCTGACTAGCTTTTAGTCTTCCACATTTATAGGGTTTGGCATTGGGTCTGGCTTACTCTCATGTAGTTCC	1.22	0.99
AMX237.F1: DNA SELEX 2 aptamer clone (nucleic acid, DNA, backbone not given here, DNA SELEX 2 aptamer clone) DNA: CTACCTACGATCTGACTAGCTTTCAGTCTTCCACGTTTATAGGGTTTGGCATTGGGTCTGGCTTACTCTCATGTAGTTCC	1.22	0.98
AMX237.G2: DNA SELEX 2 aptamer clone (nucleic acid, DNA, backbone not given here, DNA SELEX 2 aptamer clone) DNA: CTACCTACGATCTGACTAGCTTTCAGTCTTTCATATTTATAGGGTTTGGCATTGGGTCTGGCTTACTCTCATGTAGTTCC	1.16	1.02
AMX237.E5: DNA SELEX 2 aptamer clone (nucleic acid, DNA, backbone not given here, DNA SELEX 2 aptamer clone) DNA: CTACCTACGATCTGACTAGCTTTCAGTCTTCTACATTTATAGGGTTTGGCATTGGGTCTGGCTTACTCTCATGTAGTTCC	1.15	0.97
AMX238.H11: DNA SELEX 2 aptamer clone (nucleic acid, DNA, backbone not given here, DNA SELEX 2 aptamer clone) DNA: CTACCTACGATCTGACTAGCTTTCAGTCTTTCACATTTATAGGGTTTGGCATTGGGTCTGGCTTACTCTCATGTAGTTCC	1.14	0.98
